Experimental data: paper PMC11117632, “Rapid and Sensitive Detection of Inactivated SARS-CoV-2 Virus via Fiber-Optic and Electrochemical Impedance Spectroscopy Based Aptasensors”

B1: aptamer 6.8 (ssDNA)
DNA: GCAATGGTACGGTACTTCCCGGGGCGGGCTGTCATGCCCATCCTACCGTGACCGCAAAAGTGCACGCTACTTTGCTAA
B2: aptamer 6.9 (ssDNA)
DNA: GCAATGGTACGGTACTTCCATGGCTGGTGCTTGAGGTGTGTGTGGGGGTAGGGCCAAAAGTGCACGCTACTTTGCTAA

Molecular target: SARS-CoV-2 spike protein (SARS-CoV-2, UniProt P0DTC2 14-1213)
Experiment: ELONA; binding buffer 50 mM HEPES pH 7.4, 100 mM NaCl, 5 mM KCl, 2 mM MgCl2, 1 mM CaCl2; […]
Conditions: protein: recombinant, chain copies: 3, label: biotin

Binder | binding result (predicted partial stem-loops) | binding result
B1 | no binding | 
B2 |  | no binding
